T1: human ADAM10 expressed on the cell surface (LIM1215, COLO205, HEK293, HEK293 transfected with full-length … (human, UniProt O14672 214-748))
T1 construct: whole, on cells; also called tumor-expressed ADAM10; ADAM10 expressed on HEK293 cells
T1 sequence (looked up): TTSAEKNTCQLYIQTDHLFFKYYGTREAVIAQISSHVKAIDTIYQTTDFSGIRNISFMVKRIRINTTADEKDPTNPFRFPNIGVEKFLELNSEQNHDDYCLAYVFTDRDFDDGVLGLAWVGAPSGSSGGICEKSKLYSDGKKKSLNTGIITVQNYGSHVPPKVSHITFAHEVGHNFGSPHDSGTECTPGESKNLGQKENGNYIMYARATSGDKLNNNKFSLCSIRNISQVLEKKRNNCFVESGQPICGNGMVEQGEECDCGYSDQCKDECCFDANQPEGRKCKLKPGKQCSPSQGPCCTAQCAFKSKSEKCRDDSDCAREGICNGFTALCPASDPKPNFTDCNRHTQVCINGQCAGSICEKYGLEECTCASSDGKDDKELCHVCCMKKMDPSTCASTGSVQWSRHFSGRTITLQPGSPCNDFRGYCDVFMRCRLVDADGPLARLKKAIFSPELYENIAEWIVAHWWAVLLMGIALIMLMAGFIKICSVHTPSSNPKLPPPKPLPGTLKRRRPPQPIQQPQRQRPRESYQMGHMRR

T2: bovine ADAM10 disintegrin+cysteine-rich domain construct (D+C, residues 455-646) (bovine, UniProt Q10741 455-646)
T2 construct: range 455-646; also called ADAM10 D+C (b); bovine (b) ADAM10 D+C
T2 sequence (looked up): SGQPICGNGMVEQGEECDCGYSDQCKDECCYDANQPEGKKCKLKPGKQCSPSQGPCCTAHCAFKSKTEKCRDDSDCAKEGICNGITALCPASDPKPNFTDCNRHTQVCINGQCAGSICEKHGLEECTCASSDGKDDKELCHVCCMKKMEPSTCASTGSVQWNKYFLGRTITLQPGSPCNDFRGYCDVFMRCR

T3: ADAM10 D+C domains construct (species not stated) (Bos taurus (Bovine), UniProt Q10741 455-646)
T3 construct: also called ADAM10 D+C antigen; isolated recombinant ADAM10 D+C region
T3 sequence: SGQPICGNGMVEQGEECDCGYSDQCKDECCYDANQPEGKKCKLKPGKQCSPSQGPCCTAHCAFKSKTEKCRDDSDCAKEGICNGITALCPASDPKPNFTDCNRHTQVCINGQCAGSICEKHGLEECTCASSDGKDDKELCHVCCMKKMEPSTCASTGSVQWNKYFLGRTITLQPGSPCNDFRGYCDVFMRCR

T4: human ADAM10 D+C (455-650) (human, UniProt O14672 455-650)
T4 construct: range 455-650; also called human (h) ADAM10 D+C; human (h) ADAM10 D-C
T4 sequence (looked up): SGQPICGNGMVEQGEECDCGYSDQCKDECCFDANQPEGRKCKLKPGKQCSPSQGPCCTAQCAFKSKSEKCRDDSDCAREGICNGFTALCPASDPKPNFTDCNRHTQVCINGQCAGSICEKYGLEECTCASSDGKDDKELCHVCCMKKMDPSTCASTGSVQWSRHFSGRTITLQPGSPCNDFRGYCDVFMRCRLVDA


How the values were obtained:
[1] = target: T1, human ADAM10 expressed on the cell …; test: cell-based ELISA, 1H5 signal normalised to mAb1427 signal
Method: Briefly, 5×10⁴ cells/well were immobilized on 96-well ELISA plates (Greiner bio-one) with 1% paraformaldehyde for 2 hours at 37° C. The plate was washed thrice with PBS and blocked for 2 hours at room temperature with 4% non-fat dry milk. The anti-ADAM10 mAbs were added in varying concentrations. […] The data was recorded at 450 nm.

[2] = target: recombinant ADAM10 ECD (species not stated); test: cell-based or functional assay
[3] = target: T2, bovine ADAM10 disintegrin+cysteine-rich …; test: ELISA, 1H5 IgG titrated on immobilised bovine ADAM10 D+C, absorbance 450 nm [cont.) E]
[4] = target: T5, recombinant ADAM10 ECD (species not stated); test: biolayer interferometry (data not shown)
T5 construct: extracellular domain; also called full recombinant ADAM10 ECD

[5] = target: T3, ADAM10 D+C domains construct (species …); test: biolayer interferometry (data not shown)
[6] = target: T4, human ADAM10 D+C (455-650); test: ELISA, 1H5 IgG titrated on immobilised human ADAM10 D+C, absorbance 450 nm [cont.) E]
[7] = target: T3, ADAM10 D+C domains construct (species …); test: ELISA, 1H5 Fab titrated on ADAM10 D+C, absorbance 450 nm
Method: To perform the competitive ELISA, wells were coated with 100 μl of ADAM10 D+C (concentration 2 μg/ml). After washes with phosphate buffer solution (PBS), the wells were blocked with 4% non-fat dry milk. […] Color was developed using a TMB substrate kit and data was recorded at 450 nm. […] The final concentration of each mAb in the mixture was the same as when added individually. The mixture was added to the wells and incubated for 1 hour.

| fold better binding to tumor-expressed ADAM10 than to ADAM10 expressed on HEK293 cells [1] [fold] | augmentation of fluorogenic substrate peptide cleavage, relative to 8C7 [2] [fold] | EC50 (read off the curve) [3] [nM] | Kd [4] [nM] | Kd [5] [nM] | EC50 (read off the curve) [6] [nM] | EC50 [7] [nM] | Binder |
| --- | --- | --- | --- | --- | --- | --- | --- |
| ~14 | ~2 | ~3 | ~200 | 3.3 | ~3 |  | 1H5 IgG (fully human anti-ADAM10 monoclonal antibody) (antibody, V domains shown, the amino acid entries 14 and 15 are used here; also called 1H5 mAb; mAb 1H5) VH: QVQLVESGGGLVKPGGSLRLSCAASGFTFSDYYMSWIRQAPGKGLEWVSYISSSGSTIYYADSVKGRFTISRDNAKNSLYLQMNSLRAEDTAVYYCARDFYDSKIFDYWGQGTLVTVSS VL: DIQMTQSPSSLSASVGDRVTITCRASQSISSYLNWYQQKPGKAPKLLIYAASSLQSGVPSRFSGSGSGTDFTLTISSLQPEDVGVYYCMEGLKTPFTFGPGTKLEIKR |
|  |  |  |  |  |  | 15 | 1H5 Fab (Fab, V domains shown, also called 1H5 Fab fragment; Fab fragment of 1H5) VH: QVQLVESGGGLVKPGGSLRLSCAASGFTFSDYYMSWIRQAPGKGLEWVSYISSSGSTIYYADSVKGRFTISRDNAKNSLYLQMNSLRAEDTAVYYCARDFYDSKIFDYWGQGTLVTVSS VL: DIQMTQSPSSLSASVGDRVTITCRASQSISSYLNWYQQKPGKAPKLLIYAASSLQSGVPSRFSGSGSGTDFTLTISSLQPEDVGVYYCMEGLKTPFTFGPGTKLEIKR |
